Source: PMC10495343

Experiments:
collagen III = collagen III (UniProt P02461); assay: SPR; Biacore X100; collagen I or collagen III immobilised by amine coupling on a CM5 chip (around 1000 RU); CBD-SA-IL-4 flowed 90 s (collagen I) or 30 s (collagen III) at 30 μl/min; Langmuir 1:1 fit with drifting baseline
collagen I [1] = target: collagen I (UniProt P02452); assay: as above
collagen I [2] = target: collagen I (UniProt P02452); assay: SPR

Sequence of collagen I (P02452 162-1218, chain 1 of 2): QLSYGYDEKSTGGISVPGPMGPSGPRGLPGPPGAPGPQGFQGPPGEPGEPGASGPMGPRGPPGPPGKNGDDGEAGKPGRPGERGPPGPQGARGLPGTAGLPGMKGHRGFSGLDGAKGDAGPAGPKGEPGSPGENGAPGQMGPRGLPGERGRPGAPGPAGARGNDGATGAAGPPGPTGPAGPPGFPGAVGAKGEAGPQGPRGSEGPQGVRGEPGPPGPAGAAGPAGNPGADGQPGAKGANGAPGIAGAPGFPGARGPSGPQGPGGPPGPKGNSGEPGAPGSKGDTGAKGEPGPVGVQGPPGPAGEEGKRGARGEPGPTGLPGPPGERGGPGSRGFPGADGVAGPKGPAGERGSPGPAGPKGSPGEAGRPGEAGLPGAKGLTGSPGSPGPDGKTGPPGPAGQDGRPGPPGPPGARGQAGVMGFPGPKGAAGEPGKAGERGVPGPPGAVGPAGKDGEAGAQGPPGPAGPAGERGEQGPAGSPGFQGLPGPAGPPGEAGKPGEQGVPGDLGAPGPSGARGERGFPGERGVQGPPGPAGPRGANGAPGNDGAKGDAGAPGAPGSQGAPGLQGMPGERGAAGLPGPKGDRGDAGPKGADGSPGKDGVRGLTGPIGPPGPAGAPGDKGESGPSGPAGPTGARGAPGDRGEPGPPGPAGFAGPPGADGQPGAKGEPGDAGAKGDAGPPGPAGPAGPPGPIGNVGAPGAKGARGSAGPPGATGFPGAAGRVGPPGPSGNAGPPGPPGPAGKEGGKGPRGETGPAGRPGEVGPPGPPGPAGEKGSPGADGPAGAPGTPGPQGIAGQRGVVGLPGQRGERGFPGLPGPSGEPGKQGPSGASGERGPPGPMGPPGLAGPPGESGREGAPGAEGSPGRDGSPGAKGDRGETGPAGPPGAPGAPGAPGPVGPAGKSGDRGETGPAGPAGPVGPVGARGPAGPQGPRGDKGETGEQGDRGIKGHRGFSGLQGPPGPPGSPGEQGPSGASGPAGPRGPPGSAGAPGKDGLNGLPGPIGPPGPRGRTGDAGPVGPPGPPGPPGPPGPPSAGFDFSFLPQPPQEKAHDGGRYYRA
Sequence of collagen I (P08123 80-1119, chain 2 of 2, further chain): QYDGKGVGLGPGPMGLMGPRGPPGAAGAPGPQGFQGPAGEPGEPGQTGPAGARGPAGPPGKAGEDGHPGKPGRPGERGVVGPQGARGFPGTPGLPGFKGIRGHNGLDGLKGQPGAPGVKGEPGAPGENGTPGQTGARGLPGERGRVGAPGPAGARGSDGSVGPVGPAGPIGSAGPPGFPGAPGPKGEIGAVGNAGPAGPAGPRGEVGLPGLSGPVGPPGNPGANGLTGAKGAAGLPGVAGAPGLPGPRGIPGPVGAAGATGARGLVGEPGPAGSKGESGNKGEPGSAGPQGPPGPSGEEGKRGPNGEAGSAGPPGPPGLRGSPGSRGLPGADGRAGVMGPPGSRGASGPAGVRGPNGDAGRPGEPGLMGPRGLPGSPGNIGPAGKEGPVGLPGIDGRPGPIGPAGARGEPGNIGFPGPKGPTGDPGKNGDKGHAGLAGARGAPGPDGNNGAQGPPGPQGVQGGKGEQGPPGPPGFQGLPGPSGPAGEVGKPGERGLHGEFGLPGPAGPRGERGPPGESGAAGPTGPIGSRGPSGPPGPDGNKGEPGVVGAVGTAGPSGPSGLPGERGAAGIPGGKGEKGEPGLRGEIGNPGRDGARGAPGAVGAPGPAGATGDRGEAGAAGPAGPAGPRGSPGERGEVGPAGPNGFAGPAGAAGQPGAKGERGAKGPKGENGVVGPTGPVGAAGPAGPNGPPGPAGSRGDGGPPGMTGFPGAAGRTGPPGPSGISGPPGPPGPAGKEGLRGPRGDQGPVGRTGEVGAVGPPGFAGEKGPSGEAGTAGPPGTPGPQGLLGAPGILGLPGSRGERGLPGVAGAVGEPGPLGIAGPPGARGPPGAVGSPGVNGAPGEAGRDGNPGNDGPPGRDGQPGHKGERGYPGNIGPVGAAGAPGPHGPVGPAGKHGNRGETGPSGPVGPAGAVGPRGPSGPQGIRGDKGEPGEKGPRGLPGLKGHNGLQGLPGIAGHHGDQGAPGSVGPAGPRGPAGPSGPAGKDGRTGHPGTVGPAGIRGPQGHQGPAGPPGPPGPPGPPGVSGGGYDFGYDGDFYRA
Sequence of collagen III (P02461 154-1221): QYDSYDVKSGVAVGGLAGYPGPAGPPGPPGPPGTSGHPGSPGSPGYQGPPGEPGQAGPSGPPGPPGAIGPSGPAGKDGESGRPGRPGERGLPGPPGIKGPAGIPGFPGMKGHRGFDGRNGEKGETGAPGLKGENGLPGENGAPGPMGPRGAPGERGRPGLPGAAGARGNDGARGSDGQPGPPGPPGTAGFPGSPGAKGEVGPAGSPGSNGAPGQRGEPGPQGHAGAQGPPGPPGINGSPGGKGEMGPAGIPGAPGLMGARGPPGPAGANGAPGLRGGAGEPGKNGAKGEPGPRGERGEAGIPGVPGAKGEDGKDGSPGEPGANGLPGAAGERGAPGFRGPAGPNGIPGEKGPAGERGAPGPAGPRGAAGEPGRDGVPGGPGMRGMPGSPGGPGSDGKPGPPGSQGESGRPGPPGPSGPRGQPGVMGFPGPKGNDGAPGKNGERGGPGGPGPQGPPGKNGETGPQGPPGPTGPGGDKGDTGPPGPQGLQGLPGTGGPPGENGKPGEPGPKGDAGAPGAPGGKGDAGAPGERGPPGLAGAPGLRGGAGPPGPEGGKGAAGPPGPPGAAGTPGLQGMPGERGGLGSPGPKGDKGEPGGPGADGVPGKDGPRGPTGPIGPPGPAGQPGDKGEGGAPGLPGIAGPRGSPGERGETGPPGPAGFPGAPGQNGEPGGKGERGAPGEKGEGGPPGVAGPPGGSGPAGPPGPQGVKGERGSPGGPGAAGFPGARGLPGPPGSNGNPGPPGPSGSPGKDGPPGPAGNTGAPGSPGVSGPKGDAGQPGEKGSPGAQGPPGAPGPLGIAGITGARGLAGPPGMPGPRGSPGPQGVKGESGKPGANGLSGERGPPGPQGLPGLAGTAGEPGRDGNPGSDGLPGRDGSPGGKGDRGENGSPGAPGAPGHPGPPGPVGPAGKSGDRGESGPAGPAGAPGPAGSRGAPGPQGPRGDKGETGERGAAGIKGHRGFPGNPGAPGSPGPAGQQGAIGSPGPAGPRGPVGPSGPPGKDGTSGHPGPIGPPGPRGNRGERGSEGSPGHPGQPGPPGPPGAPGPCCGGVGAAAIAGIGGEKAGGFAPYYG

Substance	Kd (collagen III)	Kd (collagen I [1])	koff (collagen I [2])
collagen-binding, serum albumin-fused IL-4 variant (CBD-SA-IL-4)	37 nM	8 nM	–
collagen-binding, serum albumin-fused IL-4 variant (CBD-SA-IL-4) (from UniProt P04275)	–	–	0.0026 s⁻¹
